Patent US20110300113A1, “Death Receptor CD95 Controls Neurogenesis of Adult Neural Stem Cells in Vivo and in Vitro” (DEUTSCHES KREBSFORSCHUNGSZENTRUM, priority 2006, published 2011)

Key:
[1] = target: CD95 (APO-1 or Fas), mouse, endogenous in neural stem cells / brain tissue (mouse) (UniProt P25446); assay: cell-based or functional assay
[2] = test system: GSK3β and AKT phosphorylation; assay: Western blot of GSK3β and AKT phosphorylation in NSCs; format: cell-based, mouse; conditions: inhibitor pretreatment
Procedure: Western Blots. Phosphorylated GSK3β (P-Ser9-GSK3β, 1:1000), phosphorylated AKT (P-Ser473-KT, 1:1000), total AKT (T-AKT, 1:1000), Src family kinases (Src, 1:1000), cleaved caspase 3 (1:250), total β-Catenin (1:1000) and phosphorylated src (Tyr416) were purchased from Cell Signaling/New England Biolabs. pp60(c-Src) antibody was purchased from Upstate. Antibody against total GSK3β (T-GSK3β, 1:1000), were purchased from Santa Cruz. The PI3K inhibitor […] (25 μM) and the Src family kinase inhibitor PP2 (20 μM) were purchased from Calbiochem. Cells were preincubated with inhibitors 30 minutes (LY 294002) and 1 hour (PP2) prior to treatment. Cells were lysed for further biochemical analysis. Protein extraction and immunoblotting was performed as previously described.

neural progenitor cells = assay: GFAP expression (glial differentiation) in neural progenitor cells; format: cell-based, mouse; conditions: data not shown
Procedure: For staining of intracellular markers, cells were harvested, fixed with 4% PFA for 10 min on ice, washed and permeabilized using 0.1% Saponin (Sigma-Aldrich) in PBS with 10% FCS (SAP). Cells were incubated with primary antibody or isotype for 30 min on ice. Cells were washed three time with SAP and incubated with secondary antibody for 30 min on ice. Cells were washed again three times with SAP and analysed. Antibodies used were: anti β-III-tubulin (Chemicon) 1:100, anti GFAP (Chemicon) 1:100 and isotype mouse IgG1 (Sigma) 1:20. Secondary antibody was goat anti-mouse PE 1:100 (Dianova). To quantify DNA fragmentation, cells detached with trypsin were centrifuged, washed and fixed with 70% ethanol at −20° C. for 1 h. Fixed cells were resuspended in a hypotonic lysis buffer (0.1% sodium citrate and 0.1% Triton X-100) containing […] of propidium iodide, incubated at 4° C. overnight. After final washings, all samples were analysed using a FACS-Calibur (Becton Dickinson) and CellQuest Software (Becton Dickinson).
Mouse adult neural stem cell culture. NSCs were isolated as previously described^30. Briefly, 6 week old female C57BL6 mice were sacrificied and tissue from hippocampus, SVZ and spinal cord was dissected out. […]

mouse adult SVZ NSCs = assay: Gene expression by quantitative real-time PCR in adult SVZ NSCs; format: cell-based; conditions: 48 h after stimulation
Procedure: Real-time Quantitative PCR. 24 h cells after plating cells were stimulated with 1 activation unit of CD95L-T4. After 48 h RNA was isolated using the RNeasy Mini Kit (Qiagen). Real-time quantitative PCR was carried out using Sybr Green core kits (Eurogentec) and Uracil-N-glycosylase (Eurogentec). For determining CD95L induction after global ischemia, the hippocampi were dissected out and stored in RNAlater reagent (Ambion). RNA was extracted using the RNeasy Mini Kit (Qiagen). Real-time quantitative PCR was carried out using Sybr Green core kits (Eurogentec) and Uracil-N-glycosylase (Eurogentec). Primers used for quantitative real-time PCR were designed using Primer 3 software (http://fokker.wi.mit.edu/cgi-bin/primer3/primer3_www.cgi).

SVZ NSCs = assay: β-III-tubulin expression in adult SVZ neural progenitor cells (flow cytometry); format: cell-based, mouse; conditions: exogenous BDNF alone; data not shown
Source text: Lentiviral infections. SVZ NSCs were infected with the lentiviral vector pEIGW and pEIGW-GSK3βS9A at a multiplicity of infection (MOI) of 5. The plasmids were constructed by replacing the eGFP sequence between the EF1α promotor and the WPRE element in pWPTS-eGFP with the IRES-eGFP cassette form pIRES2-eGFP (Clontech, Germany). The recombinant lentiviral vector pEIGW-GSK3βS9A was constructed using pcDNA3 HA-GSK3βS9A. This vector encodes a constitutively active GSK3β mutant containing a serine-to-alanine substitution at residue 9 (GSK3βS9A). Expression of all transgenes was confirmed in infected cells by FACS analysis of GFP expression. The percentage of infected cells was 70-90%.
siRNA. […] 48 h later pp60 src knockdown was assessed by Western Blot. At the same time, cells were stimulated with CD95L-T4 and analysed after 48 h for β-III-tubulin positive cells.
For staining of intracellular markers, cells were harvested, fixed with 4% PFA for 10 min on ice, washed and permeabilized using 0.1% Saponin (Sigma-Aldrich) in PBS with 10% FCS (SAP). […] Cells were washed again three times with SAP and analysed. […] To quantify DNA fragmentation, cells detached with trypsin were centrifuged, washed and fixed with 70% ethanol at −20° C. for 1 h. […] After final washings, all samples were analysed using a FACS-Calibur (Becton Dickinson) and CellQuest Software (Becton Dickinson). […]

Chain of CD95 (APO-1 or Fas), mouse, endogenous in neural stem cells / brain tissue (mouse) (P25446 22-327): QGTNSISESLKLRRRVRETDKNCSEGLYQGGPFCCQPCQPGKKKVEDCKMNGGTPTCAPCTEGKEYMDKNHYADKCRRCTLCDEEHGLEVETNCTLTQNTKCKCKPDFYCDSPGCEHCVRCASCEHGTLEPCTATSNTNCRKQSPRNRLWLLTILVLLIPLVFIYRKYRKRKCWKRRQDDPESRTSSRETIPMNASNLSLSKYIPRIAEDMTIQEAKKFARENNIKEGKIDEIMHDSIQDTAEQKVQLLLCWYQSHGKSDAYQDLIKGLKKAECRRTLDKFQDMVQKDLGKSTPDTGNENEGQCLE

## mus musculus CD95-Ligand-T4 (mmCD95L-T4) (from UniProt P41047 140-279; P10104 458-484)
[1]
  PI3K activity at 1 min after treatment with 1 U of CD95L-T4 (relative to untreated = 1) (fold of untreated): 1.38
  PI3K activity at 5 min after treatment with 1 U of CD95L-T4 (relative to untreated = 1) (fold of untreated): 1.53
  β-III-tubulin positive cells, NSCs with control siRNA, after CD95L-T4: 18.1%
  β-III-tubulin positive cells, NSCs with transfection reagent only, after CD95L-T4: 17.1%

## CC(C)(C)n1nc(-c2ccc(Cl)cc2)c2c(N)ncnc21 [PP2]
[2]; CD95-induced
  phosphorylation of GSK3β: inhibited phosphorylation
[2]; induced by CD95L
  phosphorylation of AKT: inhibited phosphorylation

B1: CNTF: inducer of astrocytic differentiation (protein, UniProt P26441 1-200, looked up)
Ciliary neurotrophic factor: MAFTEHSPLTPHRRDLCSRSIWLARKIRSDLTALTESYVKHQGLNKNINLDSADGMPVASTDQWSELTEAERLQENLQAYRTFHVLLARLLEDQQVHFTPTEGDFHQAIHTLLLQVAAFAYQIEELMILLEYKIPRNEADGMPINVGDGGLFEKKLWGLKVLQELSQWTVRSIHDLRFISSHQTGIPARGSHYIANNKKM
Neural progenitor cells
  GFAP expression: enhanced expression of GFAP
Mouse adult SVZ NSCs
  BDNF expression: induced
  Doublecortin like kinase1 (DCLK) expression: no effect on DCLK expression
  Jagged1 mRNA levels: decreased
  Neurogenin (Ngn1) expression: almost complete loss of Ngn1 mRNA

B2: BDNF: brain-derived nerve factor, a neurotrophin (protein, UniProt P23560 19-247, looked up)
Neurotrophic factor BDNF …: APMKEANIRGQGGLAYPGVRTHGTLESVNGPKAGSRGLTSLADTFEHVIEELLDEDQKVRPNEENNKDADLYTSRVMLSSQVPLEPPLLFLLEEYKNYLDAANMSMRVRRHSDPARRGELSVCDSISEWVTAADKKTAVDMSGGTVTVLEKVPVSKGQLKQYFYETKCNPMGYTKEGCRGIDKRHWNSQCRTTQSYVRALTMDSKKRIGWRFIRIDTSCVCTLTIKRGR
SVZ NSCs
  β-III-tubulin expression: did not increase β-III-tubulin expression
